Experimental data as given in patent US6187552A, “Method for identifying inhibitors of JAK2/cytokine receptor binding” (Pharmacia & Upjohn Company, priority 1998, dated 2001).

How the values were obtained:
[1] = test system: peptide 4 (βc peptide) bound to SPA beads; experiment: SPA competition: unlabeled JAK2 against labeled JAK2/NJAK2 for peptide 4 bound to SPA beads; format: binding, human
[2] = JAK2 remaining soluble after ultracentrifugation (ELISA) / aggregation; format: physicochemical
Protocol: Recombinant JAK2 protein containing the Flag affinity label ([…]) [SEQ ID NO:20] was expressed in either SF9 or HI-5 cells as described. Cells were lysed by dounce homogenization (20 strokes) in 1X phosphate buffered saline (PBS), pH 7.5 at 4 C. Clarified extract was passed through an anti-Flag immunoaffinity column (Kodak, New Haven, Conn.) and purified recombinant JAK2 was eluted by competition with a solution of Flag peptide at a concentration of 250 ug/ml in 1×PBS. Purity was characterized by a single band on SDS polyacrylamide gels. For some experiments, the JAK2 protein (0.15 mg/ml), aliquoted into 7 equivalent tubes, was then subjected to ultracentrifugation in an Airfuge using an A-110 rotor at an average of 164,000×g for a period of 6 hours at ambient temperature. At zero time, and at each subsequent hour thereafter, a tube of JAK2 was removed for analyses (ELISA, SDS polyacrylamide gel electrophoresis, and Western blotting).
Aliquots of the above supernatants were removed and subjected to an ELISA assay. Each solution was diluted 1:50 with 0.1M sodium carbonate, pH 9.0, and applied in multiple concentrations to a 96 well plate. After an overnight incubation, each well was washed with 0.1% BSA in 1×PBS, pH 7.5 (wash buffer), followed by continued incubation for an additional hour at 4 C. The wells were then incubated with 150 ul of C20 anti-JAK2 antibody (Santa Cruz Biotechnology, Santa Cruz, Calif.) in wash buffer for 1 hour at 4 C., followed by extensive washes with wash buffer. Secondary antibody (150 ul of alkaline phosphatase labeled goat anti-rabbit IgG (Promega, Madison, Wis.) at a dilution of 1:2000) was applied for 1 hour at 4 C., followed by extensive washes with buffer. Finally, wells were incubated with 0.1 M Tris HCl, 5 mM MgCl2, pH 9.5, and then with the same buffer (150 ul) containing 5 mg/ml p-nitrophenylphosphate (pNPP). Color formation was read by a SpectraMax 250 plate reader set at an absorbance of 405 nm. The linear phase of each concentration curve was chosen for each of the time points (0,1,2,3,4,5,and 6 hours of ultracentrifugation) in order to calculate the relative amount of recombinant JAK2 remaining in the supernatant of each fraction.
To see whether more highly aggregated JAK2 could be separated by ultracentifugation from less aggregated or monomeric JAK2, a sample of freshly purified JAK2 at a defined concentration was centrifuged in an airfuge as described in Materials and Methods. Samples were taken at 7 different time points over a 6 hour period to assess the amount of JAK2 which remained in the supernatant phase. After 1 hour at 164,000×g, 40 to 50% of the original JAK2 was detected, a value which remained relatively constant for up to 5 additional hours in this experiment. […] Since the supernatant was removed from below the meniscus by pipetting, a determination of the molecular weight could not be established in this experiment.

human JAK2 = molecular target: T1, human JAK2 (Homo sapiens, UniProt O60674); experiment: SPA: binding of 3H-JAK2 to βc peptides on streptavidin-coated beads; conditions: JAK2 from 32.5 nM to 16.25 nM; FIG. 14
T1 construct: NJAK2 = N-terminal 294 residues
Protocol: Cells were lysed by dounce homogenization (20 strokes) in 1X phosphate buffered saline (PBS), pH 7.5 at 4 C. […] For some experiments, the JAK2 protein (0.15 mg/ml), aliquoted into 7 equivalent tubes, was then subjected to ultracentrifugation in an Airfuge using an A-110 rotor at an average of 164,000×g for a period of 6 hours at ambient temperature. At zero time, and at each subsequent hour thereafter, a tube of JAK2 was removed for analyses (ELISA, SDS polyacrylamide gel electrophoresis, and Western blotting).
Three different labeling reactions were done using ^3 H-N-succinimidyl propionate (^3 H-NSP, Amersham Life Sciences, Arlington Heights, Ill.). One reaction was done using 0.5 mg of purified JAK2 in 0.1 M borate buffer, pH 8.5, with a reaction volume of 150 μl and an incubation time of one hour on ice with dried 1 mCi of ^3 H-NSP (toluene was removed using a stream of nitrogen). […] Another reaction was done using the buffer 0.1 M sodium phosphate, pH 8.0, and a similar volume as before. One milligram of JAK2 in 1.2 ml of phosphate buffer was incubated for three hours on ice. […]
Triplicate reactions were done for each data point. […] The plates were then read on a MicroBeta (Wallac) set to read scintillation due to tritium.
Either ^3 H-JAK2 or ^3 H-NJAK2 was added to the wells and, after incubation, the signals measured. […]

Molecule | apparent Kd versus more aggregated JAK2 ([1]; inferred from competition of supernatant, FIG. 18) | competition with labeled JAK2 versus starting material ([1]; supernatant after ultracentrifugation, peptide 4 on beads, FIG. 18) | % JAK2 Remaining ([2]; 0 hours ultracentrifugation) | % JAK2 Remaining ([2]; 1 hour ultracentrifugation, 164,000×g) | % JAK2 Remaining ([2]; 2 hours ultracentrifugation, 164,000×g) | % JAK2 Remaining ([2]; 3 hours ultracentrifugation, 164,000×g) | % JAK2 Remaining ([2]; 4 hours ultracentrifugation, 164,000×g) | % JAK2 Remaining ([2]; 5 hours ultracentrifugation, 164,000×g) | % JAK2 Remaining ([2]; 6 hours ultracentrifugation, 164,000×g) | original JAK2 detected in supernatant ([2]; after 1 hour at 164,000×g, relatively constant up to 5 additional hours) | JAK2 remaining soluble as defined by ELISA ([2]; after ultracentrifugation) | aggregation by size exclusion chromatography ([2]; data not shown) | signal obtained on lowering final JAK2 concentration (human JAK2) | competition of labeled JAK2 binding ([1]; 5-fold excess unlabeled JAK2, peptide 4) | competition of labeled NJAK2 binding ([1]; 10-fold excess unlabeled JAK2, peptide 4)
JAK2 from the supernatant: supernatant after 1 hour of ultracentrifugation of JAK2 (protein, UniProt O60674 1-1132, looked up) Tyrosine-protein kinase JAK2: MGMACLTMTEMEGTSTSSIYQNGDISGNANSMKQIDPVLQVYLYHSLGKSEADYLTFPSGEYVAEEICIAASKACGITPVYHNMFALMSETERIWYPPNHVFHIDESTRHNVLYRIRFYFPRWYCSGSNRAYRHGISRGAEAPLLDDFVMSYLFAQWRHDFVHGWIKVPVTHETQEECLGMAVLDMMRIAKENDQTPLAIYNSISYKTFLPKCIRAKIQDYHILTRKRIRYRFRRFIQQFSQCKATARNLKLKYLINLETLQSAFYTEKFEVKEPGSGPSGEEIFATIIITGNGGIQWSRGKHKESETLTEQDLQLYCDFPNIIDVSIKQANQEGSNESRVVTIHKQDGKNLEIELSSLREALSFVSLIDGYYRLTADAHHYLCKEVAPPAVLENIQSNCHGPISMDFAISKLKKAGNQTGLYVLRCSPKDFNKYFLTFAVERENVIEYKHCLITKNENEEYNLSGTKKNFSSLKDLLNCYQMETVRSDNIIFQFTKCCPPKPKDKSNLLVFRTNGVSDVPTSPTLQRPTHMNQMVFHKIRNEDLIFNESLGQGTFTKIFKGVRREVGDYGQLHETEVLLKVLDKAHRNYSESFFEAASMMSKLSHKHLVLNYGVCVCGDENILVQEFVKFGSLDTYLKKNKNCINILWKLEVAKQLAWAMHFLEENTLIHGNVCAKNILLIREEDRKTGNPPFIKLSDPGISITVLPKDILQERIPWVPPECIENPKNLNLATDKWSFGTTLWEICSGGDKPLSALDSQRKLQFYEDRHQLPAPKWAELANLINNCMDYEPDFRPSFRAIIRDLNSLFTPDYELLTENDMLPNMRIGALGFSGAFEDRDPTQFEERHLKFLQQLGKGNFGSVEMCRYDPLQDNTGEVVAVKKLQHSTEEHLRDFEREIEILKSLQHDNIVKYKGVCYSAGRRNLKLIMEYLPYGSLRDYLQKHKERIDHIKLLQYTSQICKGMEYLGTKRYIHRDLATRNILVENENRVKIGDFGLTKVLPQDKEYYKVKEPGESPIFWYAPESLTESKFSVASDVWSFGVVLYELFTYIEKSKSPPAEFMRMIGNDKQGQMIVFHLIELLKNNGRLPRPDGCPDEIYMIMTECWNNNVNQRPSFRDLALRVDQIRDNMAG | higher apparent Kd than the more aggregated JAK2 | competed less effectively than the starting material |  |  |  |  |  |  |  |  |  |  |  |  | 
JAK2: Recombinant JAK2 protein containing the Flag affinity label, expressed in SF9 or HI-5 cells (protein, Flag tag) MACLTMTEMEGTSTSSIYQNGDISGNANSMKQIDPVLQVYLYHSLGKSEADYLTFPSGEYVAEEICIAASKACGITPVYHNMFALMSETERIWYPPNHVFHIDESTRHNVLYRIRFYFPRWYCSGSNRAYRHGISRGAEAPLLDDFVMSYLFAQWRHDFVHGWIKVPVTHETQEECLGMAVLDMMRIAKENDQTPLAIYNSISYKTFLPKCIRAKIQDYHILTRKRIRYRFRRFIQQFSQCKATARNLKLKYLINLETLQSAFYTEKFEVKEPGSGPSGEEIFATIIITGNGGIQWSRGKHKESETLTEQDLQLYCDFPNIIDVSIKQANQEGSNESRVVTIHKQDGKNLEIELSSLREALSFVSLIDGYYRLTADAHHYLCKEVAPPAVLENIQSNCHGPISMDFAISKLKKAGNQTGLYVLRCSPKDFNKYFLTFAVERENVIEYKHCLITKNENEEYNLSGTKKNFSSLKDLLNCYQMETVRSDNIIFQFTKCCPPKPKDKSNLLVFRTNGVSDVPTSPTLQRPTHMNQMVFHKIRNEDLIFNESLGQGTFTKIFKGVRREVGDYGQLHETEVLLKVLDKAHRNYSESFFEAASMMSKLSHKHLVLNYGVCVCGDENILVQEFVKFGSLDTYLKKNKNCINILWKLEVAKQLAWAMHFLEENTLIHGNVCAKNILLIREEDRKTGNPPFIKLSDPGISITVLPKDILQERIPWVPPECIENPKNLNLATDKWSFGTTLWEICSGGDKPLSALDSQRKLQFYEDRHQLPAPKWAELANLINNCMDYEPDFRPSFRAIIRDLNSLFTPDYELLTENDMLPNMRIGALGFSGAFEDRDPTQFEERHLKFLQQLGKGNFGSVEMCRYDPLQDNTGEVVAVKKLQHSTEEHLRDFEREIEILKSLQHDNIVKYKGVCYSAGRRNLKLIMEYLPYGSLRDYLQKHKERIDHIKLLQYTSQICKGMEYLGTKRYIHRDLATRNILVENENRVKIGDFGLTKVLPQDKEYYKVKEPGESPIFWYAPESLTESKFSVASDVWSFGVVLYELFTYIEKSKSPPAEFMRMIGNDKQGQMIVFHLIELLKNNGRLPRPDGCPDEIYMIMTECWNNNVNQRPSFRDLALRVDQIRDNMAGDYKDDDDKN |  |  | 100% | 46.0% | 39.6% | 32.5% | 43.7% | 44.1% | 41.3% | 40 to 50% | 50% | exhibited degrees of aggregation | decreases significantly | competed significantly | reduced almost to background
